# Results taken from patent US8414660B2, “Haloferax volcanii laccase and variants and fragments thereof” (University of Florida Research Foundation, Inc., priority 2009, dated 2013).
# “And” between values parts separate entries of the source, which are not always exact repeats. Equal entries are not always repeated.
# How the values were obtained:
# [1] = Laccase activity assay, oxidation of ABTS; format: biochemical
# Description: (§1) FIG. 6D-Thermostability of LccA.
# [2] = Laccase activity assay, oxidation of DMP with copper sulfate; format: biochemical; conditions: US02-purified LccA, standard conditions, CuSO4 added
# [3] = Oxidation of bilirubin; format: biochemical; conditions: US02-purified LccA
# [4] = Oxidation of guaiacol; format: biochemical; conditions: presence or absence of copper supplementation
# [5] = Oxidation of ferrous ammonium sulfate; format: biochemical; conditions: presence or absence of copper supplementation
# [6] = Thermostability of LccA, residual SGZ oxidizing activity after pre-incubation; format: physicochemical
# Description: as §1
# LccA was fully active after 1 h at 55° C. and 5 h at 50° C., with a half-live of inactivation at 50° C. of 31.5 h (FIG. 6D). […] (Fernandes et al., 2007). Likewise, the recently studied recombinant RL 5 laccase from rumen metagenome has maximal activity at 60° C. and is fully stable at this temperature for 200 min (Beloqui et al., 2006). […] (Martins et al., 2002).
# [7] = Salt tolerance of LccA, residual SGZ oxidizing activity after pre-incubation in NaCl; format: physicochemical; conditions: 100 mM to at least 1.4 M NaCl, FIG. 6E
# [8] = Effect of mixed organo-solvents on LccA stability, residual SGZ oxidizing activity; format: physicochemical; conditions: 185 mM NaCl
# Description: as §1
# Commonly used water miscible organo-solvents (i.e., methanol, ethanol, dimethyl sulfoxide or DMSO and dimethylformamide or DMF) were examined for their compatibility with LccA stability and activity. […] LccA was relatively stable in all solvents examined, retaining nearly 75% of its activity after 24 h incubation in methanol or ethanol and over 50% of its activity after incubation in DMSO or DMF. The influence of water-miscible cosolvents on enzyme activity and stability has been examined for several fungal laccases (Rodakiewicz-Nowak et al., 1999; Robles et al., 2002; Milstein et al., 1993; Luterek et al., 1998; Cantarella et al., 2003). These prior studies coupled with the current findings reveal a wide-variety of laccases, including LccA, are stable and/or can support catalysis and conversion of phenolic substrates in water-organic mixed solvents. Since most of the substrates and mediators of laccases are insoluble or poorly soluble in water and the degree of polymerization of phenoxyl radicals is higher in aqueous media (Milstein et al., 1993), solvent stability is an important feature to consider in optimizing this group of enzymes.
# [9] = Delignification of steam exploded sugarcane bagasse, total phenol by Folin-Ciocalteau
# Description: Prior to enzymatic treatment, sugarcane bagasse was treated with 1% (v/v) phosphoric acid and steam exploded in a shotgun reactor at 190° C. for 10 min. The resultant bagasse was adjusted to pH 8.4 with 5M NaOH.
# Stream exploded bagasse was delignified using the laccase, LccA, from H. volcanii US02. LccA was prepared for the delignification reaction by concentrating H. volcanii US02 culture supernatant 5-fold with ethanol precipitation and dialyzing the concentrate against 25 mM Tris buffer pH 8.4 supplemented with 200 mM NaCl (T buffer) with regenerated cellulose dialysis tubing (3500 Da molecular weight cut off; Thermo Scientific SnakeSkin Pleated Dialysis Tubing).
# Bagasse samples were treated with LccA in a rotary shaker at 150 rpm with similar doses of heat killed LccA enzyme (HKE) as a control. Periodically clear supernatant obtained by centrifugation of small fraction of hydrolysate was used for total phenol estimation by Folin-Ciocalteau method (Singleton and Rossi, 1965). Optimal conditions were determined to be treatment with 3 Uml^1 LccA at 37° C. in T buffer at pH 8.4 for 3-6 h.
# [10] = Laccase activity assay, oxidation of SGZ (syringaldazine); conditions: for Km: read-out: Km, SGZ
# Description: LccA (51 μg·ml^−1) activity was assayed at different temperatures (22° to 70° C.) in T buffer with 185 mM NaCl using SGZ (1 mM) as the substrate. […] LccA activity was assayed with SGZ (●) from pH 6 to 11 and with ABTS (◯) from pH 3 to 8 at 45° C. using following buffers: 100 mM sodium acetate for pH 3 to 6, 25 mM Tris-HCl for pH 7 to 10, and 25 mM glycine-NaOH for pH 11. Activity is expressed as percent relative to oxidation of ABTS at pH 6. […] Purified enzyme (50.6 μg·ml^−1) was pre-incubated in T buffer supplemented with 185 mM NaCl at temperatures from 37° to 70° C. for up to 60 h, as indicated. […] Activity is presented as percent relative to incubation on ice (37° C. (●), 45° C. (▪), 50° C. (▴), 55° C. (♦), 60° C. (◯), 65° C. (□) and 70° C. (Δ)); FIG. 6E-Salt tolerance of LccA protein. Purified enzyme (16.5 μg·ml^−1) was pre-incubated for 30 min in T buffer at pH 8.4 supplemented with different concentrations of NaCl (0 to 1.4 M) as indicated. Samples were diluted to a final concentration 4.12 μg·ml^−1 protein and 185 mM NaCl in T buffer and assayed for SGZ oxidizing activity under standard conditions. Residual activity was calculated as percent relative to incubation at 185 mM NaCl. […] Enzyme (7.5 μg·ml^−1) was incubated in T buffer with 185 mM NaCl in the presence and absence of 25% (v/v) solvent (DMSO, DMF, ethanol and methanol) at room temperature for 90 min (white bar), 3 h (grey bar) and 24 h (black bar). […] Activity is calculated as percent relative to incubation without solvent.
# Enzyme activity was determined by change in absorbance, in triplicate, by UV/Visible-spectroscopy using a BioTek Synergy HT multi-detection microplate reader with a 96-well plate. Oxidation of substrate was monitored by absorbance increase (ABTS at 420 nm with ε=36,000 M^−1 cm^−1; SGZ at 526 nm with ε=65,000 M^−1 cm^−1; DMP at 468 nm with ε=49,000 M^−1 cm^−1; guaiacol at 436 nm with ε=26,600 M^−1 cm^−1; ferrous ammonium sulfate at 315 nm with ε=2,200 M^−1 cm^−1) or decrease (bilirubin at 440 nm with ε=56,300 M^−1 cm^−1). Standard assay conditions were 185 mM NaCl at 45° C. with the following buffers and substrate concentrations: 100 mM sodium acetate buffer at pH 6.0 for ABTS (at 5 mM), DMP (at 2 mM) and guaiacol (at 5 mM); 25 mM Tris-HCl buffer at pH 8.4 for SGZ (at 1 mM); and 200 mM Tris-HCl buffer at pH 8.4 for bilirubin (0.45 mM). Copper sulfate (1 mM) was included for assay of DMP oxidation. Oxidation of ferrous ammonium sulphate (1 mM) was monitored at 315 nm (ε=2,200 M^−1 cm^−1) with and without salt (185 mM NaCl) in 100 mM MES (morpholineethanesulfonic acid) buffer at pH 5 as well as 25 mM Tris-HCl buffer at pH 7.0 and 8.4. One unit of enzyme activity is defined as the amount of enzyme that oxidizes 1 μmol of substrate per min at standard conditions. […] Kinetic parameters (Km, Vmax, and kcat) were determined using the Michaelis-Menten equation. […] All assays and protein purifications were performed at least in triplicate.
# To further evaluate the catalytic properties of LccA, the temperature, pH and salt optima of the purified enzyme were determined using SGZ and/or ABTS as substrates.
# [11] = LccA from culture broth of Hfx. volcanii BS01
# [12] = LccA from culture broth of Hfx. volcanii US02
molecule,measurement,setting,value
"LccA: Haloferax volcanii laccase of the multicopper oxidase family, SEQ ID NO: 2, secreted glycoprotein purified from culture broth of strain US02 (protein, listed as Haloferax volcanii, glycosylated) MTDWSRRRFLQTGAALGIAGTLPQTTTEVSAASPTLEKFVQPLPIPSVREPDGQRDGADAYEIAVTEFTQQLHPDLPETTVWGFDGSYPGPTIEADAGSPVHVRFDNSGLPSEHLFPVDDRLGGTTAENHPGYDGPVPEVRTVTHFHGLELDPANDGQSDMWTSPGGVEGPRFDSAWQELPMEQGRTTSTYHDHTLGITRLNAYAGLLGLYSITTDAERELGLPSGDYDIPLLLQDKEFNDDGSLHYPEEFVSAFLGDTAVVNGAVWPYVEVEPRRYRFRILNGANHRSFDLQLESESGSGVPTMYQFAPGHGFLESVVPIGPNGDLDSLLLTPFERGELVVDFSDHAGETLTLANGADMGPELTDLVEFRVSDPSTPPEDASADPTSLSLPTPASYDESDARVTREMTLGTEVRNGLITHTLNGHVFGDEDAPVYPQLGATEIWELQNESGGRHPIHLHLVTFRVIGRGPDGTQPPDPNELGPKDTVRVDPGERVRILVTFEGYTGQFPWHCHMLEHEDNKMMIPFVVENPVADYANEENVVDATGLTDAVGDWRNETLETEVLLEVIDQWRSGDEVA","pH optimum, ABTS oxidation","[1]; 45° C., FIG. 6C",6.0
same,Km,[1]; [11],700 µM
same,"kcat, ABTS",[1]; [11],10.0 s⁻¹
same,Km,[1]; [12],671 µM
same,"kcat, ABTS",[1]; [12],9.9 s⁻¹
same,"Specific activity, ABTS oxidation","[1]; US02-purified LccA, standard conditions",6.1±0.39 U·mg^−1
same,"Specific activity, DMP oxidation",[2],12.6±1.1 U·mg^−1
same,Km,[3],236 µM
same,"kcat, bilirubin",[3],29 s⁻¹
same,"Specific activity, bilirubin oxidation",[3]; standard conditions,25.5±1 U·mg^−1
same,Oxidation of guaiacol,[4],did not oxidize
same,Oxidation of Fe^2+ (ferrous ammonium sulphate),[5],did not oxidize
same,Activity retained after incubation,"[6]; 37° C., 2½ days",nearly all of its original activity
same,Activity after pre-incubation,[6]; 1 h at 55° C.,fully active
same,Activity after pre-incubation,[6]; 5 h at 50° C.,fully active
same,Activity retained after incubation in NaCl,[7],nearly all of its original activity
same,Activity retained after incubation in solvent,[8]; 25% (v/v) DMSO or DMF,over 50%
same,Activity retained after incubation in solvent,"[8]; 24 h, 25% (v/v) methanol or ethanol",~75%
same,Phenol content after treatment,"[9]; 3 h of treatment, from 1473±10 before",1160±26 mg phenol per liter
same,Reduction in the phenol content,"[9]; 3 h of treatment, ~1 g dry weight bagasse in 15 ml T buffer",21%
same,Reduction in the phenol content,[9]; bagasse (~1 g dry weight equivalents) in 50 ml of T buffer,38-43%
same,"pH optimum, SGZ oxidization","[10]; 45° C., FIG. 6C",8.4
same,Activity relative to temperature optimum,[10]; 55° C.,67%
same,Activity relative to temperature optimum,[10]; 60° C.,48%
same,Activity relative to temperature optimum,[10]; 65° C.,35%
same,Activity relative to temperature optimum,[10]; 70° C.,15%
same,"kcat, SGZ",[10]; [11],19.4 s⁻¹
same,"kcat, SGZ",[10]; [12],21.7 s⁻¹
same,"Specific activity, SGZ oxidation","[10]; LccA purified from H. volcanii US02, fraction F2 (upper fraction), MonoQ 10/10","F2, 6.7 U · mg^−1"
same,Salt concentration for optimal activity,"[10]; NaCl or KCl in T buffer at 45° C., FIG. 6B",~200 mM
same,Activity in KCl higher than in NaCl,[10]; at ~200 mM salt,1.5 fold
same,"Specific activity, SGZ oxidation","[10]; improved purification protocol from H. volcanii US02, MonoQ 10/10 pH 8.4",51.5 U·mg^−1
same,"Specific activity, SGZ oxidation","[10]; purified from culture broth of Hfx. volcanii SB01 (C-terminal StrepII tag), final MonoQ 10/10 pH 8.4",1.3 U·mg^−1 and 1.34 U·mg^−1
same,Km,[10]; [11],67 µM
same,Km,[10]; [12],35 µM
same,Activity relative to temperature optimum,[10]; room temperature (25° C.),~75%
